# ± gives the uncertainty stated by the source.
# Assay: self-splicing fitness, log relative to wild type (ln ratio); higher = more splicing; Tetrahymena group I intron in knt gene, E. coli kanamycin selection, DiMSum; sequences stand for … in CUCUCU…GGAGGGAAAAGUUAUCAGGCAUGCACCUGGUAGCUAGUCUUUAAACCAAUAGAUUGCAUCGGUUUAAAAGGCAAGACCGUCAAAUUGCGGGAAAGGGGUCAACAGCCGUUCAGUACCAAGUCUCAGGGGAAACUUUGAGAUGGCCUUGCAAAGGGUAUGGUAAUAAGCUGACGGACAUGGUCCUAACCACGCAGCCAAGUCCUAAGUCAACAGAUCUUCUGUUGAUAUGGAUGCAGUUCACAGACUAAAUGUCGGUCGGGGAAGAUGUAUUCUUCUCAUAAGAUAUAGUCGGACCUCUCCUUAAUGGGAGCUAGCGGAUGAAGUGAUGCAACACUGGAGCCGCUGGGAACUAAUUUGUAUGCGAAAGUAUAUUGAUUAGUUUUGGAGUACUCGUGGUCG
# How it was run: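 Fitness was computed with DiMSum as the error-weighted combination of replicate fold changes, kanamycin versus none, each normalised to wild type. The library randomised all eight intron nucleotides of the P1ex region, with the intron placed in the knt kanamycin-resistance gene on pET-22b(+) in E. coli BL21(DE3). Six replicate transformations were grown overnight at 37°C or 30°C on LB agar with or without 25 μg/mL kanamycin, plus 100 μg/mL carbenicillin, 50 μM IPTG and 0.2% rhamnose. Pooled colonies were amplicon-sequenced on an Illumina HiSeq 2500.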
Sequence,self-splicing fitness (ln) (30 °C),self-splicing fitness (ln) (37 °C)
AGCAAGCAAUAUUACGACGC,-1.09 ± 0.11,0.048 ± 0.12
AGCAAGCAAUAUUACGACGU,-0.267 ± 0.075,0.91 ± 0.093
AGCAAGCAAUAUUACGAGAC,-4.19 ± 0.36,-2.81 ± 0.21
AGCAAGCAAUAUUACGAGCA,-0.456 ± 0.14,-0.101 ± 0.14
AGCAAGCAAUAUUACGAGCU,-3.42 ± 0.17,-2.15 ± 0.21
AGCAAGCAAUAUUACGAGUG,-1.15 ± 0.051,-0.683 ± 0.06
AGCAAGCAAUAUUACGAUUA,-1.56 ± 0.093,-0.818 ± 0.081
AGCAAGCAAUAUUACGCAAG,-2.4 ± 0.2,-2.11 ± 0.26
AGCAAGCAAUAUUACGCAUC,-2.72 ± 0.093,-3.73 ± 0.24
AGCAAGCAAUAUUACGCCCU,-2.12 ± 0.26,-0.679 ± 0.36
AGCAAGCAAUAUUACGCCUG,-3.23 ± 0.27,-2.54 ± 0.42
AGCAAGCAAUAUUACGCGAG,-3.61 ± 0.16,-2.87 ± 0.19
AGCAAGCAAUAUUACGCGCC,-3.19 ± 0.34,-2.46 ± 0.32
AGCAAGCAAUAUUACGCGGG,-3.87 ± 0.21,-3.71 ± 0.26
AGCAAGCAAUAUUACGCUAG,-4.08 ± 0.25,-2.1 ± 0.22
AGCAAGCAAUAUUACGCUGA,-2.22 ± 0.14,-2.07 ± 0.17
AGCAAGCAAUAUUACGCUGU,-2.69 ± 0.12,-0.265 ± 0.12
AGCAAGCAAUAUUACGCUUU,-2.23 ± 0.17,-1.55 ± 0.12
AGCAAGCAAUAUUACGGAAG,-3.35 ± 0.25,-2.32 ± 0.26
AGCAAGCAAUAUUACGGAGU,-2.98 ± 0.13,-1.6 ± 0.12
AGCAAGCAAUAUUACGGCAU,-0.0513 ± 0.084,-0.204 ± 0.092
AGCAAGCAAUAUUACGGGGG,-3.78 ± 0.15,-2.45 ± 0.19
AGCAAGCAAUAUUACGGUCG,-0.327 ± 0.1,0.74 ± 0.13
AGCAAGCAAUAUUACGGUGA,-1.88 ± 0.11,-0.835 ± 0.093

Sequence,self-splicing fitness (ln) (30 °C),self-splicing fitness (ln) (37 °C)
AGCAAGCAAUAUUACGGUUC,-3.75 ± 0.17,-3.42 ± 0.25
AGCAAGCAAUAUUACGGUUU,-1.28 ± 0.051,-0.398 ± 0.066
AGCAAGCAAUAUUACGUAAG,-2.47 ± 0.097,-0.897 ± 0.12
AGCAAGCAAUAUUACGUCAC,-2.89 ± 0.16,-1.88 ± 0.18
AGCAAGCAAUAUUACGUCGG,-2.93 ± 0.19,-1.59 ± 0.19
AGCAAGCAAUAUUACGUCGU,-1.72 ± 0.12,-0.897 ± 0.16
AGCAAGCAAUAUUACGUUGA,-2.95 ± 0.12,-1.37 ± 0.1
AGCCAGCAAUAUUACGAAAA,,-1.63 ± 0.24
AGCCAGCAAUAUUACGAACC,-0.758 ± 0.12,-0.0185 ± 0.11
AGCCAGCAAUAUUACGACAC,-2.83 ± 0.28,-1.55 ± 0.27
AGCCAGCAAUAUUACGACCU,0.00818 ± 0.069,0.00767 ± 0.083
AGCCAGCAAUAUUACGACUG,-2.72 ± 0.091,-1.14 ± 0.095
AGCCAGCAAUAUUACGAUAG,-4.04 ± 0.28,-2.35 ± 0.24
AGCCAGCAAUAUUACGCCGU,-2.54 ± 0.12,-1.76 ± 0.13
AGCCAGCAAUAUUACGCGGA,-3.48 ± 0.19,-2.23 ± 0.12
AGCCAGCAAUAUUACGCGGC,-3.54 ± 0.25,-3.42 ± 0.31
AGCCAGCAAUAUUACGCGUU,-2.17 ± 0.12,-0.95 ± 0.12
AGCCAGCAAUAUUACGCUCC,-2.35 ± 0.16,-2.51 ± 0.21
AGCCAGCAAUAUUACGCUGG,-4.12 ± 0.26,-2.32 ± 0.26
AGCCAGCAAUAUUACGGACG,0.121 ± 0.072,0.405 ± 0.094
AGCCAGCAAUAUUACGGAUA,-1.63 ± 0.11,-1.51 ± 0.12
AGCCAGCAAUAUUACGGCAU,-1.31 ± 0.099,-1.15 ± 0.12
AGCCAGCAAUAUUACGGGCU,-4.03 ± 0.25,-2.5 ± 0.21
